Columns and labels:
[1] = Particle size measurement of human insulin before and after micronization; assay type: physicochemical
Method: According to one embodiment of the present invention, after micronization, the micronized human insulin has a d(0.1) particle size which is less than 5 μm or less than 3 μm or less than 2 μm.
According to one embodiment of the present invention, the micronized human insulin particles were prepared by using supercritical fluid process.

[2] = Bioactivity test (USP limit, USP 121 Insulin Assays); conditions: for Bioactivity: USP limit min. 15 IU/mg
Method: According to one embodiment of the present invention, the composition is prepared by based on USP 121 formula (The United States Pharmacopeial Convention 2015, [121] Insulin Assays). This is important in order to minimize the risk of adverse effects, both local and systemic. It is important that human insulin in the composition is used without extra excipients because, its amino acid sequence and biological activity are the same as those of the human body and are safe and have no toxic or side effects.

| Substance | d(0.1) particle size ([1]; After Micronization) | d(0.5) particle size ([1]; After Micronization) | d(0.9) particle size ([1]; After Micronization) | Bioactivity ([2]; After Micronization) | Protein activity at the end of the micronization process (versus before) ([2]; without any change in protein structure) | d(0.1) particle size ([1]; Before Micronization) | d(0.5) particle size ([1]; Before Micronization) | d(0.9) particle size ([1]; Before Micronization) | Bioactivity ([2]; Before Micronization) |
| --- | --- | --- | --- | --- | --- | --- | --- | --- | --- |
| micronized human insulin: recombinant, unmodified human insulin with particle size reduced by supercritical fluid (SAS) process | 1.654 μm | 5.273 μm | 12.54 μm | 34.72 IU/mg | protein activity increased | – | – | – | – |
| human insulin: recombinant human insulin, unmodified primary structure, before micronization | – | – | – | – | – | 1.96 μm | 13.24 μm | 25.12 μm | 16.02 IU/mg |

From US20210290733A1, “INJECTABLE MICRONIZED HUMAN INSULIN” (ARVEN ILAC SANAYI VE TICARET ANONIM SIRKETI, priority 2018, published 2021)
